Measurements reported in publication PMC3563686.

Molecular target: His-vimentin, purified recombinant, polymerized (UniProt P08670)
Test: co-sedimentation

Sequence of His-vimentin, purified recombinant, polymerized (P08670 whole entry): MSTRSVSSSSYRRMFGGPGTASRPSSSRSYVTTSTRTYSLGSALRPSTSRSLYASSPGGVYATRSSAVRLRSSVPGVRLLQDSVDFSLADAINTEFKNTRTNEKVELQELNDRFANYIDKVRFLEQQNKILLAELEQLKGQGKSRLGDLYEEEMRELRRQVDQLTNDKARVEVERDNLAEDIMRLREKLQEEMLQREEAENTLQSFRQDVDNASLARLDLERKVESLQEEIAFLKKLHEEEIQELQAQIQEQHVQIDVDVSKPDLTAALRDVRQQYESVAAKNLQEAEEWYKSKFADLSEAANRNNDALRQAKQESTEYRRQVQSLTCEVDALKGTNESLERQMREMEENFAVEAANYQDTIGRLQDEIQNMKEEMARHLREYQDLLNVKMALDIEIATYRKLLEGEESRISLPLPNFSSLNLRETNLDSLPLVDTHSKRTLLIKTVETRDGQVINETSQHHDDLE

With “adenomatous polyposis coli (APC), endogenous in rat primary astrocytes, P70478 1-2842” the percent of total APC cosedimented was 18.5%.
